Assay results as given in patent US20230011916A1, “METHODS OF CANCER TREATMENT USING ANTI-OX40 ANTIBODIES IN COMBINATION WITH PI3 KINASE DELTA INHIBITORS” (BEIGENE, LTD., priority 2019, published 2023).
Where a chain is given by its changes, count along the chain named.

Experiments:
[1] = molecular target: T1, recombinant OX40 protein with a His tag (Homo sapiens, UniProt P43489); test: Binding kinetics and affinity of anti-OX40 antibodies by SPR (BIAcore T-200)
T1 construct: His tag; purchased Sino Biological 10481-H08H
T1 sequence (P43489 29-277): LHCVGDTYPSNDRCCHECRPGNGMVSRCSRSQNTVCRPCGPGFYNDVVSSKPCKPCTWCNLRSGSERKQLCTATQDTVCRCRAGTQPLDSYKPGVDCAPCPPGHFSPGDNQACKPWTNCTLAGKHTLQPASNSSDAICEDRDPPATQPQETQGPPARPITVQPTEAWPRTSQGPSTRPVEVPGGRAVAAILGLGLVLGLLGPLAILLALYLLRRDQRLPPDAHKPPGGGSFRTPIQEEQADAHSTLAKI
Text: The anti-OX40 antibodies were characterized for their binding kinetics and affinity by SPR assays using BIAcore™ T-200 (GE Life Sciences). Briefly, anti-human IgG antibody was immobilized on an activated CM5 biosensorchip (Cat: BR100530, GE Life Sciences). An antibody with human IgG Fc region was flowed over the chip surface and captured by anti-human IgG antibody. Then a serial dilution of recombinant OX40 protein with a His tag (Cat: 10481-H08H, Sino Biological) was flowed over the chip surface and changes in surface plasmon resonance signals were analyzed to calculate the association rates (ka) and dissociation rates (kd) by using the one-to-one Langmuir binding model (BIA Evaluation Software, GE Life Sciences). The equilibrium dissociation constant (KD) was calculated as the ratio kd/ka.

[2] = tested on: A20 cells; test: A20 syngeneic B cell lymphoma model in BALB/c mice; assay type: in vivo, mouse; settings: Compound 1 10 mg/kg p.o.
Protocol: A20 cells are of B cell lymphoma origin. Female BALB/c mice were subcutaneously implanted with 1×10^5 A20 cells in 150 μL PBS mice in the right flank. After inoculation, mice were randomized into 4 groups with 25 animals in each group according to inoculation order. The mice were treated with vehicle (0.5% MC), OX86 (a murine specific anti-OX40 antibody), Compound 1, and the combination of OX86 and Compound 1. OX86 was given at 0.4 mg/kg once a week by intraperitoneal injection, and Compound 1 was administered at 10 mg/kg twice a day by oral gavage. Tumor volume was determined twice weekly and the TGI calculated as described above.

[3] = molecular target: T2, interaction between OX40 and OX40 ligand (Mus musculus, UniProt P47741); settings: reported in the scientific literature; cited from earlier work
T2 sequence (P47741 20-272): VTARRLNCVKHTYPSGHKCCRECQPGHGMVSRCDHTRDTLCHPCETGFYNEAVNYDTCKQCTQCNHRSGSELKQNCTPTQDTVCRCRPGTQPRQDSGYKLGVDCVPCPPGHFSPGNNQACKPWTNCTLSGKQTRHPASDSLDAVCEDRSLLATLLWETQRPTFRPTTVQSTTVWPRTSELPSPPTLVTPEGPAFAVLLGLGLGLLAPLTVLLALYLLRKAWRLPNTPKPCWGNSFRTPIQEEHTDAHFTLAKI
T2 sequence (P43488 1-198 partner): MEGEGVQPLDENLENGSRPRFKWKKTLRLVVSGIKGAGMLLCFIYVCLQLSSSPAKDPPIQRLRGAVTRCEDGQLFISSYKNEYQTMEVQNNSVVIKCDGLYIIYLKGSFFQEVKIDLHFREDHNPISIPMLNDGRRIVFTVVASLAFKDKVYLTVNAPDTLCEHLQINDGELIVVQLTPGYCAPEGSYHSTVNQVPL

[4] = tested on: EMT-6 cells; test: EMT-6 syngeneic breast cancer model in BALB/c mice; assay type: in vivo, mouse
Protocol: EMT-6 cells are of murine breast cancer origin. Female BALB/c mice were implanted intramammary with 5×10^4 EMT-6 cells per 100 μL PBS mice in the second right papilla. After inoculation, mice were randomized into 4 groups with 25 animals in each group according to inoculation order.
The mice were treated with vehicle (0.5% MC), OX86 (a murine specific anti-OX40 antibody), Compound 1 (PI3Kdelta inhibitor), and the combination of OX86 and Compound 1, respectively. OX86 was given at 0.4 mg/kg once per week (QW) by intraperitoneal (i.p.) injection, and Compound 1 was administered at 30 mg/kg twice per day (BID) by oral gavage (p.o.). Tumor volume was determined twice weekly and tumor growth inhibition was determined using the formula described in Example 14 above.

[5] = OX86 0.4 mg/kg QW i.p., Compound 1 30 mg/kg BID p.o.

B1: 445-1: humanized anti-OX40 antibody, human IgG1 wt, VH SEQ ID NO: 14, VL SEQ ID NO: 16 (antibody, V domains shown)
VH: QVQLVQSGAEVKKPGSSVKVSCKASGYKFTSYIIHWVRQAPGQGLEWMGYINPYNDGTRYNQKFQGRVTLTSDKSTSTAYMELSSLRSEDTAVYYCARGYYGSSYAMDYWGQGTTVTVSS
VL: DIQMTQSPSSLSASVGDRVTITCSASQGISNYLNWYQQKPGKAIKLLIYDTSTLYSGVPSRFSGSGSGTDYTLTISSLQPEDFATYYCQQYSKLPYTFGGGTKVEIK
modifications: human IgG1 constant regions; 445-1 VH pro; 445-1 VK pro
KA ([1]; Mean): 5.9e+07 M⁻¹
KA ([1]; Test 1): 5.6e+07 M⁻¹
ka ([1]; Test 1): 156000 M⁻¹ s⁻¹
kd ([1]; Test 1): 0.00277 s⁻¹
KA ([1]; Test 2): 6.1e+07 M⁻¹
ka ([1]; Test 2): 237000 M⁻¹ s⁻¹
kd ([1]; Test 2): 0.00389 s⁻¹

B2: 445-2: humanized anti-OX40 antibody, VH SEQ ID NO: 20, VL SEQ ID NO: 22 (antibody, V domains shown)
VH: B1 VH with D56E, N61A, S72A
VL: B1 VL with T51A, Y71F
modifications: 445-2 VH pro; 445-2 VK pro
KA ([1]; Mean): 7.5e+07 M⁻¹
KA ([1]; Test 1): 7.1e+07 M⁻¹
ka ([1]; Test 1): 276000 M⁻¹ s⁻¹
kd ([1]; Test 1): 0.0039 s⁻¹
KA ([1]; Test 2): 7.8e+07 M⁻¹
ka ([1]; Test 2): 206000 M⁻¹ s⁻¹
kd ([1]; Test 2): 0.00264 s⁻¹

B3: OX86: rat anti-mouse OX40 antibody (WO2016/057667) engineered with mouse IgG2a constant regions; VH SEQ ID NO: 32, VL SEQ ID NO: 33 (antibody, V domains shown)
VH: QVQLKESGPGLVQPSQTLSLTCTVSGFSLTGYNLHWVRQPPGKGLEWMGRMRYDGDTYYNSVLKSRLSISRDTSKNQVFLKMNSLQTDDTAIYYCTRDGRGDSFDYWGQGVMVTVSS
VL: DIVMTQGALPNPVPSGESASITCRSSQSLVYKDGQTYLNWFLQRPGQSPQLLTYWMSTRASGVSDRFSGSGSGTYFTLKISRVRAEDAGVYYCQQVREYPFTFGSGTKLEIK
modifications: mouse IgG2a constant regions
Mean Tumor Volume on Day 26 (mean ± SEM) ([2]; OX86 0.4 mg/kg QW i.p.): 53.4 ± 28.7 mm^3
Tumor Free Animals at Day 47 ([2]; OX86 0.4 mg/kg QW i.p.): 80%
TGI on Day 26 ([2]; OX86 0.4 mg/kg QW×4 i.p.): 93%
Blocking of the interaction between OX40 and OX40 ligand [3]: does not block the interaction between OX40 and OX40 ligand
Mean Tumor Volume on Day 22 (mean ± SEM) [4, 5]: 210.5 ± 43.9 mm^3
Tumor Free Animal [4, 5]: 40%
TGI on Day 22 ([4]; OX86 0.4 mg/kg QW×4 i.p., Compound 1 30 mg/kg BID×22 p.o.): 79%

B4: ch445: Mu445 variable domains fused to human IgG1wt/kappa constant regions (antibody, V domains shown)
VH: EVQLQQSGPELVKPGASVKMSCKASGYKFTSYIIHWVKQKPGQGLEWIGYINPYNDGTRYNEKFKGKATLTSDKSSSTAYMEYSSLTSEDSAVYYCARGYYGSSYAMDYWGQGTSVTVSS
VL: DIQMTQTTSSLSASLGDRVTISCSASQGISNYLNWYQQKPDGTIKLLIYDTSTLYSGVPSRFSGSGSGTDYFLTISNLEPEDIATYYCQQYSKLPYTFGGGTKLEKK
KA ([1]; Mean): 1.41e+08 M⁻¹
KA ([1]; Test 1): 1.22e+08 M⁻¹
ka ([1]; Test 1): 174000 M⁻¹ s⁻¹
kd ([1]; Test 1): 0.00143 s⁻¹
KA ([1]; Test 2): 1.59e+08 M⁻¹
ka ([1]; Test 2): 265000 M⁻¹ s⁻¹
kd ([1]; Test 2): 0.00167 s⁻¹
